Experimental data as given in PMC7954794, “Protein context shapes the specificity of SH3 domain-mediated interactions in vivo” (Nature Communications, 2021).

B1: YGR238C (protein, UniProt P50090 1-882, looked up)
Kelch repeat-containing …: MVPFKLTNKVPTDTGPSLISAQSVPRPIVFMDNRNNTRIVTPTLPPNQHRGISGASTALPWSPESKNTGKYIWNRVKLKNSPFPRYRHSSSFIVTNDNRIFVTGGLHDQSVYGDVWQIAANADGTSFTSKRIDIDQNTPPPRVGHASTICGNAYVVFGGDTHKLNKNGLLDDDLYLFNINSYKWTIPQPIGRRPLGRYGHKISIIASNPMQTKLYLFGGQVDETYFNDLVVFDLSSFRRPNSHWEFLEPVGDLPPPLTNHTMVAYDNKLWVFGGETPKTISNDTYRYDPAQSEWSKVKTTGEKPPPIQEHASVVYKHLMCVLGGKDTHNAYSNDVYFLNLLSLKWYKLPRMKEGIPQERSGHSLTLMKNEKLLIMGGDKTDYASPNIHDLQTSETDQGEGTLLYTLDLSSLNELCPGIMCESLHAGESFSNSLSGGFTPSKSTESENQEIINILTPRLPDSKVLSYNDIDEGAGSYSSALDDKAFERKSDREEKKPQSSKVDSSINKESPGTGIKVSKKNFPVLRGLTVDSEEYGSSSYKDTSCQKGIPKNLFDDLNLNLQTLRLEAQQKELETARHISQLEKEVQRLMVIKEASKDSNFQTARLKNLEIQKTFLESRINDLKNLLMVKLSQASKLCDQITIQNNGLKTCSEHVTIKRDIIDLENKCDVLKRQNEILVNNMQKITPELHTYLNESSCYLGKLLKSYPTSARPPSSEKDNQIYEKDSLNKIEKVINEMHETVRAKEKLHLETQKLNDERDSLRANLLDNNNKLDALRKLSDGSSKSMDLTKKAIHLSQSELEKYRKNNDDLQKEIDRIKTEQAEQDDKQEQRGAITHGNFDAFHRMKINNLKAELYMSKENRDSLKDELLALKKKLYTLEQKK
B2: YML016C (protein, UniProt P26570 2-692, looked up)
Serine/threonine-protein …: GNSSSKSSKKDSHSNSSSRNPRPQVSRTETSHSVKSAKSNKSSRSRRSLPSSSTTNTNSNVPDPSTPSKPNLEVNHQRHSSHTNRYHFPSSSHSHSNSQNELLTTPSSSSTKRPSTSRRSSYNTKAAADLPPSMIQMEPKSPILKTNNSSTHVSKHKSSYSSTYYENALTDDDNDDKDNDISHTKRFSRSSNSRPSSIRSGSVSRRKSDVTHEEPNNGSYSSNNQENYLVQALTRSNSHASSLHSRKSSFGSDGNTAYSTPLNSPGLSKLTDHSGEYFTSNSTSSLNHHSSRDIYPSKHISNDDDIENSSQLSNIHASMENVNDKNNNITDSKKDPNEEFNDIMQSSGNKNAPKKFKKPIDIDETIQKLLDAGYAAKRTKNVCLKNNEILQICIKAREIFLSQPSLLELSPPVKIVGDVHGQYGDLLRLFTKCGFPPSSNYLFLGDYVDRGKQSLETILLLFCYKIKYPENFFLLRGNHECANVTRVYGFYDECKRRCNIKIWKTFIDTFNTLPLAAIVAGKIFCVHGGLSPVLNSMDEIRHVVRPTDVPDFGLINDLLWSDPTDSPNEWEDNERGVSYCYNKVAINKFLNKFGFDLVCRAHMVVEDGYEFFNDRSLVTVFSAPNYCGEFDNWGAVMSVSEGLLCSFELLDPLDSAALKQVMKKGRQERKLANQQQQMMETSITNDNESQQ

Experiments:
Format in all cases: cell-based, Saccharomyces cerevisiae
BUD14 = test: DHFR-PCA on solid medium, bait BUD14 (Fig. 1B); details: bait BUD14, label = prey; 4 replicates
Source text: (§1) Supplement 41467_2021_21873_MOESM8_ESM.xlsx, sheet "Fig1B" | column: medsize; medrep; Ratio; Score

BBC1 = test: DHFR-PCA on solid medium, bait BBC1 (Fig. 1B); details: bait BBC1, label = prey
Source text: as §1

BEM1-1 = test: DHFR-PCA on solid medium, bait BEM1-1 (Fig. 1B); details: bait BEM1-1, label = prey; 2-8 replicates
Source text: as §1

ABP1 = test: DHFR-PCA on solid medium, bait ABP1 (Fig. 1B); details: bait ABP1, label = prey
Source text: as §1

BOI2 = test: DHFR-PCA on solid medium, bait BOI2 (Fig. 1B); details: bait BOI2, label = prey; 3-8 replicates
Source text: as §1

BEM1-2 = test: DHFR-PCA on solid medium, bait BEM1-2 (Fig. 1B); details: bait BEM1-2, label = prey
Source text: as §1

BOI1 = test: DHFR-PCA on solid medium, bait BOI1 (Fig. 1B); details: bait BOI1, label = prey
Source text: as §1

[1] = only significant differences showed, PPIs completely lost have a ratio of 0.1 and the gained PPIs 2.5

Molecule | medrep (log2 median colony size normalized to plate background, PCA score) (BUD14) | medrep (log2 median colony size normalized to plate background, PCA score) (BBC1; 2-4 replicates) | Ratio (SH3-deleted/WT medrep) (BBC1; [1]) | medrep (log2 median colony size normalized to plate background, PCA score) (BEM1-1) | medrep (log2 median colony size normalized to plate background, PCA score) (ABP1; 2-4 replicates) | Ratio (SH3-deleted/WT medrep) (ABP1; [1]) | medrep (log2 median colony size normalized to plate background, PCA score) (BOI2) | medrep (log2 median colony size normalized to plate background, PCA score) (BEM1-2; 2-8 replicates) | Ratio (SH3-deleted/WT medrep) (BEM1-2; [1]) | medrep (log2 median colony size normalized to plate background, PCA score) (BOI1; 3-8 replicates) | Ratio (SH3-deleted/WT medrep) (BOI1; [1])
B1 | 3.527 |  |  |  |  |  |  |  |  |  | 
B2 |  | 1.933 | 0.1 | 2.424 | 2.329 | 1.5236 | 2.013 | 2.424 | 0.1 | 1.566 | 2.5
